Measured values taken from patent publication US12281155 (INSTITUT PASTEUR, dated 2025).

Assays:
[1] = molecular target: Spike protein of SARS-CoV-2 strain XBB.1.16 (hCoV-19/France/GES-IPP7712/2023) (SARS-CoV-2); test: cell-based or functional assay
[2] = molecular target: Spike protein of SARS-CoV-2 strain EG.5.1 (hCoV-19/France/GES-IPP15954/2023) (SARS-CoV-2); test: cell-based or functional assay
[3] = molecular target: Spike protein of SARS-CoV-2 strain BA.2.86 (hCoV-19/France/IDF-IPP17625/2023) (SARS-CoV-2); test: cell-based or functional assay
[4] = molecular target: Spike protein of SARS-CoV-2 strain XBB.1.5 (GISAID EPI_ISL_16353849) (SARS-CoV-2); test: cell-based or functional assay
[5] = molecular target: Spike protein of SARS-CoV-2 strain D614G (hCoV-19/France/GE1973/2020) (SARS-CoV-2, UniProt P0DTC2 14-1273); test: cell-based or functional assay
[6] = molecular target: Spike protein of SARS-CoV-2 strain JN.1 (hCoV-19/France/HDF-IPP21391/2023) (SARS-CoV-2); test: cell-based or functional assay
[7] = molecular target: T1, recombinant SARS-CoV-2 Spike RBD domain, Delta variant (SARS-CoV-2); test: competition ELISA, blocking of RBD binding to ACE2 ectodomain
T1 construct: also called RBD Delta variant

[8] = molecular target: T2, recombinant SARS-CoV-2 Spike RBD domain, BA.4/5 variant (SARS-CoV-2); test: as above
T2 construct: also called RBD BA.4/5 variant

[9] = molecular target: T3, recombinant SARS-CoV-2 Spike RBD domain, JN-1 variant (SARS-CoV-2); test: as above
T3 construct: also called RBD JN-1 variant

[10] = molecular target: T4, recombinant SARS-CoV-2 Spike RBD domain, BA.2.86 variant (SARS-CoV-2); test: as above
T4 construct: also called RBD BA.2.86 variant

[11] = molecular target: T5, recombinant SARS-CoV-2 Spike RBD domain, BQ.1.1 variant (SARS-CoV-2); test: as above
T5 construct: also called RBD BQ.1.1. variant

[12] = molecular target: T6, recombinant SARS-CoV-2 Spike RBD domain, BA.2.75.2 variant (SARS-CoV-2); test: as above
T6 construct: also called RBD BA.2.75.2 variant

[13] = molecular target: T7, recombinant SARS-CoV-2 Spike RBD domain, XBB.1.16 variant (SARS-CoV-2); test: as above
T7 construct: also called RBD XBB.1.16 variant

[14] = molecular target: T8, recombinant SARS-CoV-2 Spike RBD domain, EG.5 variant (SARS-CoV-2); test: as above
T8 construct: also called RBD EG.5.1 variant

[15] = molecular target: T9, recombinant SARS-CoV-2 Spike RBD domain, XBB.1.5 variant (SARS-CoV-2); test: as above
T9 construct: also called RBD XBB.1.5 variant

[16] = molecular target: T10, recombinant SARS-CoV-2 Spike RBD domain, BA.2 variant (SARS-CoV-2); test: as above
T10 construct: also called RBD BA.2. variant

[17] = molecular target: T1, recombinant SARS-CoV-2 Spike RBD …; test: ELISA on coated RBD
[18] = molecular target: T2, recombinant SARS-CoV-2 Spike RBD …; test: ELISA on coated RBD
[19] = molecular target: T3, recombinant SARS-CoV-2 Spike RBD …; test: ELISA on coated RBD
[20] = molecular target: T4, recombinant SARS-CoV-2 Spike RBD …; test: ELISA on coated RBD
[21] = molecular target: T5, recombinant SARS-CoV-2 Spike RBD …; test: ELISA on coated RBD
[22] = molecular target: T6, recombinant SARS-CoV-2 Spike RBD …; test: ELISA on coated RBD
[23] = molecular target: T7, recombinant SARS-CoV-2 Spike RBD …; test: ELISA on coated RBD
[24] = molecular target: T8, recombinant SARS-CoV-2 Spike RBD …; test: ELISA on coated RBD
[25] = molecular target: T9, recombinant SARS-CoV-2 Spike RBD …; test: ELISA on coated RBD
[26] = molecular target: T10, recombinant SARS-CoV-2 Spike RBD …; test: ELISA on coated RBD

B1: SPK002 antibody (parental version Cv2.3194 described in WO 2022/228827) (antibody, V domains shown)
VH: EVQLVESGGGLIQPGGSLRLSCAASGITVTSNYMSWVRQAPGKGLEWVSVIYPGGSTFYADSVKGRFTISRDNSKNTLYLQMNSLRAEDTAVYYCARDLVVYGMDVWGQGTTVTVS
VL: EIVLTQSPGTLSLSPGERATLSCRASQSVSSSYLAWYQQKPGQAPRLLIYGASSRATGIPGRFSGSGSGTDFTLTISRLEPEDFAIYYCQQGVTFGGGTKVEIK
- IC50, S-Fuse neutralization of live virus [1]: 156 µg/mL
- IC50, S-Fuse neutralization of live virus [2]: 100 µg/mL
- IC50, S-Fuse neutralization of live virus [3]: 100 µg/mL
- IC50, S-Fuse neutralization of live virus [4]: 216 µg/mL
- IC50, S-Fuse neutralization of live virus [5]: 0.09 µg/mL
- IC50, S-Fuse neutralization of live virus [6]: 100 µg/mL

B2: SPK002M A3 antibody (antibody, human IgG1, kappa, V domains shown)
VH: EVQLVESGGGLIQPGGSLRLSCAASTITVTSNYMSWVRQAPGKGLEWVSVIYPGGSTFYADSVKGRFTISADNSKNTLYLQMNSLRAEDTAVYYCARDLVVYGMDVWGQGTTVTVSS
VL: EIVLTQSPGTLSLSPGERATLSCRASQSVSSSYLAWYQQKPGQAPRLLIYGASSRATGIPGRFSGSGSGTDFTLTISRLEPEDFAVYYCQQGVTFGGGTKVEIKR
- Blocking % [7]: 95%
- Blocking % [8]: 96%
- Blocking % [9]: 0%
- Blocking % [10]: 85%
- Blocking % [11]: 96%
- Blocking % [12]: 96%
- Blocking % [13]: 95%
- Blocking % [14]: 79%
- Blocking % [15]: 95%
- Blocking % [16]: 94%
- IC50, S-Fuse neutralization of live virus [1]: 0.36 µg/mL
- IC50, S-Fuse neutralization of live virus [2]: 5.92 µg/mL
- IC50, S-Fuse neutralization of live virus [3]: 0.05 µg/mL
- IC50, S-Fuse neutralization of live virus [4]: 0.12 µg/mL
- IC50, S-Fuse neutralization of live virus [5]: 0.11 µg/mL
- IC50, S-Fuse neutralization of live virus [6]: 76.3 µg/mL
- Binding AUC [17]: 31
- Binding AUC [18]: 30
- Binding AUC [19]: 26
- Binding AUC [20]: 38
- Binding AUC [21]: 30
- Binding AUC [22]: 34
- Binding AUC [23]: 31
- Binding AUC [24]: 34
- Binding AUC [25]: 35
- Binding AUC [26]: 32

B3: SPK002M A4 antibody (antibody, human IgG1, kappa, V domains shown)
VH: EVQLVESGGGLIQPGGSLRLSCAASVITVTSNYMSWVRQAPGKGLEWVSVIYPGGSTFYADSVKGRFTISADNSKNTLYLQMNSLRAEDTAVYYCARDLVVYGMDVWGQGTTVTVSS
VL: EIVLTQSPGTLSLSPGERATLSCRASQSVSSSYLAWYQQKPGQAPRLLIYGASSRATGIPGRFSGSGSGTDFTLTISRLEPEDFAVYYCQQGVTFGGGTKVEIKR
- Blocking % [7]: 93%
- Blocking % [8]: 96%
- Blocking % [9]: 2%
- Blocking % [10]: 80%
- Blocking % [11]: 96%
- Blocking % [12]: 96%
- Blocking % [13]: 95%
- Blocking % [14]: 80%
- Blocking % [15]: 95%
- Blocking % [16]: 93%
- IC50, S-Fuse neutralization of live virus [1]: 0.36 µg/mL
- IC50, S-Fuse neutralization of live virus [2]: 2.8 µg/mL
- IC50, S-Fuse neutralization of live virus [3]: 0.04 µg/mL
- IC50, S-Fuse neutralization of live virus [4]: 0.12 µg/mL
- IC50, S-Fuse neutralization of live virus [5]: 0.11 µg/mL
- IC50, S-Fuse neutralization of live virus [6]: 54.6 µg/mL
- Binding AUC [17]: 31
- Binding AUC [18]: 30
- Binding AUC [19]: 31
- Binding AUC [20]: 38
- Binding AUC [21]: 30
- Binding AUC [22]: 34
- Binding AUC [23]: 30
- Binding AUC [24]: 34
- Binding AUC [25]: 35
- Binding AUC [26]: 29

B4: SPK002M A6 antibody (antibody, human IgG1, kappa, V domains shown)
VH: EVQLVESGGGLIQPGGSLRLSCAASGITVTSNYMSWVRQAPGKGLEWVSVIYPGGSTFYADSVKGRFTISADNSKNTLYLQMNSLRAEDTAVYYCARDLVVYGMDVWGQGTTVTVSS
VL: EIVLTQSPGTLSLSPGERATLSCRASQSVSSSYLAWYQQKPGQAPRLLIYGASSRATGIPGRFSGSGSGTDFTLTISRLEPEDFAIYYCQQGVTFGGGTKVEIKR
- IC50, S-Fuse neutralization of live virus [1]: 1.34 µg/mL
- IC50, S-Fuse neutralization of live virus [2]: 21.1 µg/mL
- IC50, S-Fuse neutralization of live virus [3]: 0.63 µg/mL
- IC50, S-Fuse neutralization of live virus [4]: 0.36 µg/mL
- IC50, S-Fuse neutralization of live virus [5]: 0.07 µg/mL
- IC50, S-Fuse neutralization of live virus [6]: 100 µg/mL

B5: SPK002M A2 antibody (antibody, human IgG1, kappa, V domains shown)
VH: EVQLVESGGGLIQPGGSLRLSCAASTITVTSNYMSWVRQAPGKGLEWVSVIYPGGSTFYADSVKGRFTISADNSKNTLYLQMNSLRAEDTAVYYCARDLVVYGMDVWGQGTTVTVSS
VL: EIVLTQSPGTLSLSPGERATLSCRASQGVSSSYLAWYQQKPGQAPRLLIYGASSRATGIPGRFSGSGSGTDFTLTISRLEPEDFAVYYCQQGVTFGGGTKVEIKR
- Blocking % [7]: 95%
- Blocking % [8]: 97%
- Blocking % [9]: 1%
- Blocking % [10]: 85%
- Blocking % [11]: 97%
- Blocking % [12]: 96%
- Blocking % [13]: 96%
- Blocking % [14]: 88%
- Blocking % [15]: 96%
- Blocking % [16]: 94%
- IC50, S-Fuse neutralization of live virus [1]: 0.33 µg/mL
- IC50, S-Fuse neutralization of live virus [2]: 1.65 µg/mL
- IC50, S-Fuse neutralization of live virus [3]: 0.05 µg/mL
- IC50, S-Fuse neutralization of live virus [4]: 0.1 µg/mL
- IC50, S-Fuse neutralization of live virus [5]: 0.1 µg/mL
- IC50, S-Fuse neutralization of live virus [6]: 25.3 µg/mL
- Binding AUC [17]: 31
- Binding AUC [18]: 30
- Binding AUC [19]: 37
- Binding AUC [20]: 38
- Binding AUC [21]: 30
- Binding AUC [22]: 34
- Binding AUC [23]: 31
- Binding AUC [24]: 35
- Binding AUC [25]: 36
- Binding AUC [26]: 32

B6: SPK002M A1 antibody (antibody, human IgG1, kappa, V domains shown)
VH: EVQLVESGGGLIQPGGSLRLSCAASTITVTSNYMSWVRQAPGKGLEWVSVIYPGGSTFYADSVKGRFTISADNSKNTLYLQMNSLRAEDTAVYYCARDLVVYGMDVWGQGTTVTVSS
VL: EIVLTQSPGTLSLSPGERATLSCRASQGFSSSYLAWYQQKPGQAPRLLIYGASSRATGIPGRFSGSGSGTDFTLTISRLEPEDFAVYYCQQGVTFGGGTKVEIKR
- Blocking % [7]: 94%
- Blocking % [8]: 97%
- Blocking % [9]: 71%
- Blocking % [10]: 85%
- Blocking % [11]: 97%
- Blocking % [12]: 96%
- Blocking % [13]: 97%
- Blocking % [14]: 90%
- Blocking % [15]: 97%
- Blocking % [16]: 95%
- IC50, S-Fuse neutralization of live virus [1]: 0.17 µg/mL
- IC50, S-Fuse neutralization of live virus [2]: 0.15 µg/mL
- IC50, S-Fuse neutralization of live virus [3]: 0.02 µg/mL
- IC50, S-Fuse neutralization of live virus [4]: 0.07 µg/mL
- IC50, S-Fuse neutralization of live virus [5]: 0.08 µg/mL
- IC50, S-Fuse neutralization of live virus [6]: 1.28 µg/mL
- Binding AUC [17]: 31
- Binding AUC [18]: 31
- Binding AUC [19]: 39
- Binding AUC [20]: 37
- Binding AUC [21]: 30
- Binding AUC [22]: 34
- Binding AUC [23]: 30
- Binding AUC [24]: 35
- Binding AUC [25]: 35
- Binding AUC [26]: 33
